Source: the DeepSol protein solubility set

Assay: soluble on expression in E. coli; label from the status in PepcDB or PDB records

Sequence | soluble on expression in E. coli
MSLYENKKVVAIGGGHGLGRMLAALKVFGSNATGIVTTTDNGGSTGRIRHCQGGIAWGDTRNCINQLITEPSISSMMFEYRFKGAGELNGHNLGNLMLTALDNLSVRPLDAINLIRNMLKVDVNILPMSEHPSDLAALAMDGKWVTGETSVDEMTQDLRRLDLAPEVPATKEAVTAIQDADCVILGPGSFLTSVMPPLLLPELGKAIARNQTAKVIFVENLSPEYGPAGRMSLEQKLEWCERACQGRKIDVVLGHHPHPELEQRWNFVTRDLASANRDWRHDRQKLRQAIEEQLMNLEHHHHHH | soluble
MSLYEWLNALPKAELHLHLEGTLEPELLFALAERNRIALPWNDVETLRKAYAFNNLQEFLDLYYAGADVLRTEQDFYDLTWAYLQKCKAQNVVHVEPFFDPQTHTDRGIPFEVVLAGIRAALRDGEKLLGIRHGLILSFLRHLSEEQAQKTLDQALPFRDAFIAVGLDSSEVGHPPSKFQRVFDRARSEGFLTVAHAGEEGPPEYIWEALDLLKVERIDHGVRAFEDERLMRRLIDEQIPLTVCPLSNTKLCVFDDMSQHTILDMLERGVKVTVNSDDPAYFGGYVTENFHALQQSLGMTEEQARRLAQNSLDARLVKEGHHHHHH | soluble
MSLYFLLQKVILPNIDLCTEEQLYFRTQGGKYNYTSRNLLVPRHKVAYFDTFFNAFSIKKWKKYTTLTSLFLRVNIIGRGTITVRHKENGVIRVLKQIDFKSSCNISDEIEIDISKINFGYIYVEWQSDEDSVLNGFELLTKDHVSKSSMALVITTYNRKEAVTKTINRINKTLLTQSEFKDRFKLIVVNNGEAINHPSGNGIIVINNENLGGSGGFMRGLIEAGKINDVKHVIFMDDDGSCEIESICRTHAFLLMAKDKNTVVTGCMLFEDNPAIIHESGAIWHRDFLHYPDKHYLDAREIDSLDTFDNERKIGYGGWWFFAFNINAIEYYSFPFFVRGDDLLFGYMHKKHNIVTLNGVASWQMDFERKISVLNSYLNFRTVAVPALISKREGHHHHHH | not soluble
MSLYKADMLGDAYEYLIKQFADDAGKKGGEFYTPKAVVQLVVELIDPRPGHSVYDPTCGSGGMLVESAHHVSGLPDGTLMGKPNVLLYGQEKNLGTWAIAKLNLYLHNMHASIERGDTLVEPKHLDGDYLKTFDRVIANPPFSAKSWWTPLELSNENEQENGKKVKAPNYKQVSDPYGRLVYGVPPRGYADLAFAQHMLASLKADGRMGVILPHGVLFRSGEEGKIREGLLFGTGAASGNQPGDVIEAIVGLPSALFYNTGIPACVLILNKQKPSALKDKVIIIDGSRDYLEGKAQNSLHAEDILRIVSTHKAAFEQQVEVENYCRLVTLDEIRSNDGNLNIVRYIDNGESDEVVNVAATLAHMATLAKEEAQIDQRLNRYLMELGLLETGEGHHHHHH | not soluble
MSLYKVYGDYQSGNCYKVKLMLSLLGRPYEWHPVDILKGETETPEFLAMNPNGKVPVLELEDGSYLWESNAILNYLADGSEFLPSEPRLRTQVLQWQFFEQYSHEPYIAVARFIQFYLGLPDERLDEYRKLHKGGYKALKVMERQLQMTPYLVGEQYSIADVALYAYTHVAQQGGFDLADYPAVRAWLERVSSHPRHVPMVGEGHHHHHH | soluble
MSLYMTIGRIFDLSVGKYPNKEALVEPEKNIRWTYKQWDEQINKTAHALLEEGVRKGDTVSVYLYNCHEFVNVYLACAKIGAIFNPINFRLKAKEVSYILQDASSKVVVFEKAVESTVAIIERDFPNTSFWSIENDKPSYASSYHEKVNEASSEKVNIEIDEMDYCSMLYTSGTTGHPKGVLHRHREMAEHSMICTYFLKYNRDSVGLVVAPLYHCGELNAGIIPRIQVGGKNVILHHFDTETVLHTIQEEKITTFFAAPTMWNMLLQKDLAQYDLTSMKIGIYGGAAMAPALVKECKERLYIDLVQIYGMTEMGPVVAFLVEEDQITKAGSAGTPCFSHEVRIVKPNEDAPAEPDDVLPPYEVGEIILRGPTMMAGYHNREEANKKSMYKGWYHSGDLGYFDKDGYLFVADRVDDMVISGGVNIYPREIEDFLHSHPGILDVAVLGEPDELWGERVVAVIVKKDETITEADLETYCKESDELADYKRPRHYLFVDELPRNASGKLQKFVLRESLKGAKEGHHHHHH | soluble
MSLYPKAYIDYLVEFHATRDYFECHEILEEYWKEDPPKKRKRYWVGFIQLAVALYHHRRQNTAGAKRLMANSIRILQAEHRAVEDLGLDHGRLLELMQSVYEQIETVSAYKSIILPIKDEKLEEACRIECRKKKYTWGQPSALSNIFLIDKHRLRDRTDVIREREKEIERRKKSRDEGHHHHHH | soluble
MSLYSDSVTHCLQTCNSPYQKSEKDHRRLSLFAARLFLYNLALFNQFDISMTQSIWRSVTPQFEQFNKVFENYPNLAPISLIEIQPRLTSALEQFVHLKGFSRILLINAPDNSIYRSLFKDALLEQDLDVPVVSTETLDISEILGQVKVEHGGLVHKTSGYLEQANGGYLIVSANLLLANPRYWPTVKAAVLGETVSPINCDPKSPLPNRLGSSYDVKLIVVGDRTQLGDLDFLDADIHSGLCLFSELELDLKIEEETIEDYLGYLRWLCEQYNLPSLTCSAIQSLMTAGARYTEDQYYAPLCLMWHRALLEEARLESEEPLIDAEHIEIALDKRYLRESYLPERALDDILDGQVIIETQGEQVGQVNGLTVIEVTGHPMPYGEPARISCVIHFGDGDIADVERKVELGGNLHAKGMMIMQAFVSSALNLDGSLPFSASIVFEQSYSEVDGDSASLAELCSLVSALSEYPIDQQIAVTGAVDQFGRVQAVGGLNEKIEGFYRVCCHQGLTGEQGVILPSSNLKHLALHKSVVESIKNGEFNIWPVSTVDEAIPLLMGKPFRGEDEGHHHHHH | not soluble
MSLYTASQLLDKINSHISDIRFTRTPAGLYDPIKYVLSMGGKRIRPVLMLMAYNLYKEDVSSIYDPATAIEVYHNYTLLHDDLMDRADMRRGKTTVHKVWNDNTAILSGDAMLVLAYQYMAASSSEHLKEVMDLFSLTALEICEGQQMDMNFESREDVKEEEYLEMIRLKTAVLLAASLKIGAILGGASPEDAENLYDFGMQIGVAFQLQDDLLDVYGDPAVFGKNIGGDILCNKKTYMLIKALERADRDQLEGLNHWLSATSFCPEEKISAVTELYTQIGIKAVCENKMREYYTRAMTSLGAVSVIEDKKSELKKLMKHLMYREGHHHHHH | soluble
MSMENFAQLLEESFTLQEMNPGEVITAEVVAIDQNFVTVNAGLKSESLIDVAEFKNAQGEIEVKVGDFVTVTIESVENGFGETKLSREKAKRAADWIALEEAMENGDILSGIINGKVKGGLTVMISSIRAFLPGSLVDVRPVKDTSHFEGKEIEFKVIKLDKKRNNVVVSRRAVLEATLGEERKALLENLQEGSVIKGIVKNITDYGAFVDLGGIDGLLHITDLAWRRVKHPSEVLEVGQEVEAKVLKFDQEKQRVSLGMKQLGEDPWSGLTRRYPQGTRLFGKVSNLTDYGAFVEIEQGIEGLVHVSEMDWTNKNVHPSKVVQLGDEVEVMILEIDEGRRRISLGMKQCQANPWEEFAANHNKGDKISGAVKSITDFGVFVGLPGGIDGLVHLSDLSWTESGEEAVRKYKKGEEVEAVVLAIDVEKERISLGIKQLEGDPFGNFISVNDKGSLVKGSVKSVDAKGAVIALSDEVEGYLPASEFAADRVEDLTTKLKEGDEVEAVIVTVDRKNRSIKLSVKAKDAKESREALNSVNAAANANAGTTSLGDLLKAKLSGEQELEHHHHHH | soluble
MSMGKQGVKTAVPKLRFPEFRHSEAWELKKLSCFLVEQKKRNKNLSFGPQEVLSVSGEHGCVNQIELLGRSYAGVSLANYHVVETGDIVYTKSPLKRNPFGIIKENKGKPGVVSTLYAVYRTTVFGNPAFLDHYFSGDYNLNSYLQPIVRKGAKNDMKVSNAAVLAGEVFAPEVEEQKKIADFLTSLDDLISVQVLKVEALKVHKRGLMQELFPREGEASPRLRFPEFSNASGWTLGKASDIIDVLQGYGFPERLQGGREGNFPFYKVSDISACVDAGGILLDKANNHIDADVLEELRAKLMPIGSTVFAKIGEAIRSNKRAITSRPCLVDNNVAGVKAITGLAHDRFVYYMWCQIPLIEYAGGVVPAVKKSLMEQIPVCYPKFDEQQRIADFLSSLDAKIAAEFDQLAALRTHKKGLMQQLFPLSEVGLLEHHHHHH | soluble
MSMIETWTAVDQYVSDVLIPKDSTLEEVLQVNAAANLPAHDVSPTQGKFLQLLVQIQGARNILEIGTLGGYSTIWLARGLSSGGRVVTLEASEKHADIARSNIERANLNDRVEVRTGLALDSLQQIENEKYEPFDFIFIDADKQNNPAYFEWALKLSRPGTVIIGDNVVREGEVIDNTSNDPRVQGIRRFYELIAAEPRVSATALQTVGSKGYDGFIMAVVKE | soluble
MSMIHKFSMNGYNIVLDVNGGAVHVLDDVAYDLLDFYKEKSKEEILEILKSKYQEEKINEAYEEILNLEKEGLLYTEDTYQYHPSFVHREPVVKALCLNVAHDCNLKCKYCFAAQGDFGGEKELMSFEVGKAAIDYLIANSGSRKNLEIDFFGGEPLMNFEVVKQLVDYGRSVEKDYNKNIRFTITTNGVLLNDEIIDYINENMHNVVLSLDGRKEVNDNMRPTLNDKGSYDITLPRFKKLVEKRSKDKYYYIRGTFTRDNLDFSKDVMHFADLGFKLTSVEPVVGDESNPYALREEDLPKIFEEYEKFAVEYADRQLQGDGFKFFHFMIDLNQGPCVIKRITGCGAGNEYLSVTPNGDIYPCHQFVGNEEFKMANIFDEEIVLPENLKNMFREAHVYTKEECKQCWNKFYCSGGCHANAINFNSDISKPYELGCEMQRKRTECSIMIQAKLMLEGATN | not soluble
MSNDGDLNIDNLITRLLEVRGCRPGKPVTMSEAEIRALCHKSREIFLSQPILLELEAPLKICGDIHGQYNDLLRLFEYGGFPPEANYLFLGDYVDRGKQSLETICLLLAYKVKYPENFFLLRGNHECASINRIYGFYDECKRRFSIKLWKTFTDCFNCLPIAALIDEKIFCCHGGLSPDLQNMEQIRRVMRPTDVPDTGLLCDLLWSDPDKDVTGWGENDRGVSFTFGPDVVAKFLNRHDLDLICRAHQVVEDGYEFFAKRQLVTLFSAPNYCGEFDNAGGMMSVDETLMCSFQILKPSEKKAKYQYQGMNSGRPAVGGGRPGTTAGKK | not soluble
MSNGGKRPPEDDSKLPYYKLVVIGDGGVGKSSLTIQFFQKQFVDYYDPTIEDQYIQHCEIDGNWVIMDVLDTAGQEEFSAMREQYIRGGRGFLLVFSVTERKSFEEAHKLYNQVLRVKDRSEYPVLLVANKVDLINQRVVSEQEGRELAAQLKLMYIETSAKEPPVNVDAAFHELVRIVRSFPSDEGDHEASMASVPRTKKRKDKGKCLIS | soluble
MSNHIDRDVINALIAGHFADPFSVLGMHRTDAGLEVRALLPDATDVWVIEPKTGRKVGKLECLDSRGFFSGVLPRRKNAFRYQLAVTWHGQQNLIDDPYRFGPLLQ | not soluble
MSNKTSIEGLSALLHTLMLIPQHRWITVRELQQQLALLDIHRTTRSIKRYLDEVIVEVFNVECDSMSMPHVYRKTSEQLLKLNKQEMLYWQLTNKYLLPLVPDALNYGQGSSSERDKPLPHKASAHSKEQEWLAKVHVVLPTIREWNDEQRQVLNAVHTALLHNRMLKISSQVLQQEKALIEPLGLSVQCDALLLLFRLSGQHTIRTLALPLIDEATVSTFSFTYPTDFNLERFMREHDGVSAS | not soluble
MSNNNKYFTITKKQYKKMRRNKIELLFNVKVLKKKNGRQKFKILHEVENKPKIPIKIIEDQPESPKPLKPPKPPKPPKGPDNPEEPDSPEEPKETDQPGGPDNPNAGNKKMPTPEEYVTRKEFNEFKDSNNQRLTKIENKVDKLEVKVDKLAEIVQTQGEEIKELKVEQKAQSETLQLILKTLQKMNDRLDRMETRLDKIDSPKLEHHHHHH | soluble
MSNPITITESAQSHFAKLLAQQPEGTNIRVFVVNPGTQNAECGVSYCPPEAVEATDTEYPFSGFSAYVDELSLPFLEEAVIDFVTDKMGSQLTLKAPNAKMRKVSDDASLMERVEYALQTQVNPQLAGHGGHVRLISISDDGVALVQFGGGCNGCSMVDVTLKEGIEKELLAQFAGELTAVRDSTEHDRGEHSYY | not soluble
